The nanobody polyreactivity screen of Harvey et al. (2022)

Test: yeast display, Sf9 membrane polyspecificity reagent, FACS + sequencing; frameworks hold sequencing errors
Procedure, shortened: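 Galactose induction of a Saccharomyces cerevisiae BJ5465 synthetic nanobody display library ran 36–48 hours. The cells were then stained for 1 hour at 4 °C with 10% biotinylated, detergent-solubilized Sf9 membrane reagent, pulled down on streptavidin microbeads and FACS-sorted into low and high (top ~1%) gates on expression and reagent-binding fluorescence. Labels for polyreactivity follow the gate of origin.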

Row | Sequence | polyreactivity (PSR sort gate)
1 | QVQLVESGGGLVQAGGSLRLSCAASGRTGVNAMGWYRQAPGKERGLVAAINTSVGRTYYADSVKGRFTISRDNAKNTVYLQMNSLKQEDTAVYYCNTDRLGAARYDYWGHGTQVTVSS | low polyreactivity
2 | QVQLVESGGGLVQAGGSLRLSCAASGRTFGSNAMGWYRQAPGKERELVAAISLRGGRTYYADSVKGRFTISRDNAKNTVYLQMNSLKPEDTAVYYCNAVHYLYGARSRLTYDYWGQGTQVTVSS | high polyreactivity
3 | QVQLVDSGGGLVQAGGSLSLSCAASGRIFPYNAMGWYRQAPGKERELVAGISRTGGSTYYADSVKGRFTISRDNAKNTVYLQKNCLKTEDTAAYYCGARPGAHPDRLDYWGQGTQVTVSS | low polyreactivity
4 | QVQLVESGRGLVQAGGSLRLSCAASGSIFWYYAMGWYRPSPGKETELVAAIRRGGSTTYADSVKGRFTISRDNAKNTVYLQMNSLKPEDTAVYYCAAEPYYWYRGDYWGQGTQVTVSS | high polyreactivity
5 | QVQLVESGGGLVQAGGSLRLSCAASGFIFDNNAMGWYRQAPGKERELVADISESGGSTYYADSVKGRFTISRDNAKNTVYLQMNSLKPEDTAVYYCNADIESWYCEFDYWGQGTQVTVSS | low polyreactivity
6 | QVQLVESGGGLVQAGGSLRLSCAASGFTFRYYVMGWYRQAPGKEGELVAAISWSGGTTYYADSVKGRFTISRDNAKNTVYLQMNSLKPEDTAVYYCAADVYLNRRQRMYFWGQGSQVTVSS | high polyreactivity
7 | QVQLVESGGGLVQAGGSLRLSCAASGRIFYYNAMGWYRQAPGKERELVAAISTRGTSTYYADSVKGRFTISRDNAKNTVYLQMNSLKPEDTAVYYCNRASGNWQSYLRYDYWGQGTQVTVSS | low polyreactivity
8 | KVQLVESGGVLVQEGGRLRLSCAASGRTFQLNAMGWYRQAPGKEMELVAAISTRGGSTYYADSVKGRFTISRDNAKNSVYLQMNSLKPEDTAGYYCAKDPSFTRGYKEGGGYDYWGQGTQVTVSS | high polyreactivity
9 | QVQLVESGGGLVQAGGSLRLSCAASGITFWTYAMGWYIQAPGKERELVAAISNGGSTSYADSVKGRFTISRDNAKNTVYLQMNSLKPEDTAVYYCAADWATHRPWYWWVYYWGQGTQVTVSS | low polyreactivity
10 | QVQLVESGGGLVQAGGSLRLSCAASGIIFIVNAMGWYRQAPGKERELVAAISNGGSTNYADSVKGRFTISRDNAKNTVYLQMNSLKPEDTAVYYCADDYSTWLRAYDYWGQGTQVTVSS | low polyreactivity
11 | QVQLVESGGGLVQAGGSLRLSCAASGLILGVYTMGWYRQAPGKEREFVASINYGGGSTYYADSVKGRFTISRDNAKNTVYLQMNSLKPEDTAVYYCNARSRWGGTRLYSYDYWGQGTQVTVSS | low polyreactivity
12 | QVQLVESGGGLVQAGGSLRLSCAPSGSTFPLYAMGWYRQAHGNEREFVAAIRWIGGSTYYADSVKGRFTISRDNAKNTVYLQMNSLKPEDTAVYYCAADYVVSAFDYWGQGTQVTVSS | low polyreactivity
13 | QVQLVESGGGLVQAGGSLRLSCAASGRIFNFYAMGWYRQAPGKERELVASITSDGSTKYADSVKGRFTISRDNAKNTVYLKMNSLKPEDTAVFYCATDTWGSYYDDDDYWGQGTQVTVSS | high polyreactivity
14 | QVQLVESGGGLVQAGGSLRYSCAASGSTSAWYAMGWYRQAPGKERELVAAITESGGDTYYADSVKGRFTISRDNAKNTVYLQMNSLKPEDTAVYYCNARGSARKSVPYPLEYWGQGTQVTVSS | high polyreactivity
15 | QVQLVESGGGLVQAGGSLRLSCAASGFIFGTYAMGWYRQAPGKEWELVAAISSGGSTFYADSVKGRFTISRDNEKNTVYLQMYSLKPEDTAVYYCAKEGGTYRIFNYWGQGTQVTVSS | low polyreactivity
16 | QVQLVESGGGLVQAGGSLRLSCAASGSIFITYAMGWYRQAPGKERELVAAIRDSGDRTYYADSVKGRFTISRDNAKNTVYLQMNSLKPEDTAVYYCAKRAWGSPYGYWGQGTQVTVSS | low polyreactivity
17 | QFQLVESGGGLVQAGGSLRLSCAASGRIFPLYVMGWYRQAPGKERELVAAMSRSGSRTYYADSVKGRFTISRDNAKNTVYFQMNSLKPEDTAVYYCAAVPDGTTRYDGDYWGQGTQVTVSS | high polyreactivity
18 | QVQIVESGGGLVQAGGTLRLSCAASGLTFAYYDMGWYSQAPGKERELVAAITSVGTTNYADSVKGRFSISRDNSKNTVYLKMNSLKPEDTAVYYCNADYFSRIVGDRIYDYCGQGTQVTVSS | low polyreactivity
19 | QVQLVESGGGLVQAGGSLRLSCAASGRIFVLYAMGWYRQAPGKERELVAAISTSGGSTYYADSVKGRFTISRDNAKNTYYLQMNSLKPEDTAVYYCAADRSARFLFIQYYPYGMDYWGQGTQVTVSS | high polyreactivity
20 | QVQLVESGGGLVQAGCSLRLSCAASGRTDFYTMGWYRQAPGKEMELVAAITSTGRTYYADSVKGRFTISRDNAKNTVYLKMNSLKPEDTAVYFCAAVWRYKGLLLPSYYYWGQGTQVTVSS | high polyreactivity
21 | QVQLVESGGGLVQAGGSLRLSCGASGFIFLKNAMGWYRQAPGKARELVAAITRSGDITYYADSVKGRFTISRDNAKNTVYLKMNSLKPEDTAVYYCATTREFPSYDSWGQGTQVTVSS | low polyreactivity
22 | QVQLVESGGGLVQAGGSLRLSCAASGRIFFGNAMGWYRLAPGKEREFVAAITWRGGNTYYADSVKGRFTISRDNAKNTVYLQMNSLKPEDTAVYDCNASPSEVRRRYDYWGQGTQVTVSS | high polyreactivity
23 | QVQLVESGGGLVQAGGSLRLSCAASGRIFTVYAMGWYRQAPGKERELVAAITRGGGGTYYADSVKGRFTISRDNAKNTVYFQMNSLKPEETAVYYCAAAYRGDRWSYRVDYWGQGTQVTVSS | high polyreactivity
24 | QVQLVESGGGLVQAGGSLRLSCAASGSTFPPNAMGWYRQAPGKERELVAGINGSGGRTYYADSVKGRFTISRDNAKNTVYLQMNSMKPEDTAVYYCATRLRSEYYYNKWYYHWGQGTQVTVSS | high polyreactivity
25 | QVQLVESGGGLVQAGGSLRLSCAASGSIFTLYAMGSYRQAPGKERELVAAITWSGGSTYYADSVKGRFTISRDNAKNTVYLQMNSLKPEDTAVYYCAKDYLAGGPWEGHVEREYDYWGQGTQVTVSS | low polyreactivity
26 | QVQLVESGGGLVQAGGSLRLSCAASGFTFRKNDMGWYRQAPGKERELLAAISSGGGRTYYADSVKWRFTISRDNAKNTVYLQMNSLKQEDTAVYYCNADDGYYVGLSSAIYDYCGQGTQVTVSS | high polyreactivity
27 | QVQLVESGGGLVQAGGSLRLSCVASGRIFWANAIGWYRQAPGKERELVAAITYSGGTTYYADSVKGRFTISRDNAKNTVYLQMNSLKPEATAVYYCAKVGRGNNYWGQGTQVTVSS | high polyreactivity
28 | QVQLVESGGGLVQAGGSLRLSCAASGIIFLWYAMGWYRQAPGKERELVAAISRTGSSTYYADSVKGRFTISRDNAKNTVYLQMNSLKPEDTAVYYCAAAYYSKRSWRFDYWGQGTQVTVSS | high polyreactivity
29 | QVQLVESGGGLVQAGGSLRLSCAASGRTIRSYAMGRSRQAPGKEREWVAAISWSGGRTYYADSVKGRFTISRDNAKYTVYLQMTSLKPEDTADYYCAARVSVGVPRYEYWGQGTQVTVSA | high polyreactivity
30 | QVQLVESGGRLVQAGGSLRLTLAASGNTRGSYAMGWYRQAPGKEREFVATISKRGGSTYYADSVKGRFTISRDNAKNTVYLQMNSLKPEDTAVYYCNKDPYSIYRPGSGQGYAFNYWGQGTQVTVSS | high polyreactivity
